Assay results taken from paper PMC5807055, “Atomic Structure of Type VI Contractile Sheath from Pseudomonas aeruginosa” (Structure(London, England:1993), 2018).

B1: P. aeruginosa TssB1 (H1-T6SS sheath protein), produced in E. coli (natural protein)
chain: MGSTTSSQKFIARNRAPRVQIEYDVELYGAEKKVQLPFVMGVMADLAGKPAEPQAAVADRKFLEIDVDNFDARLKAMKPRVAFNVPNVLTGEGNLSLDITFESMDDFSPAAVARKVDSLNKLLEARTQLANLLTYMDGKTGAEEMIMKAIKDPALLQALASAPKPKDDEPQA
notes: TssB1 of the H1-T6SS cluster of Pseudomonas aeruginosa; 172 residues in total (132 traced; M1-S3 and M136-A172 not traced); also called VipA/IglA homologue; source: E. coli B834(DE3), co-produced with TssC1 from pET28-B1C1, purified as TssB1C1 tubes (size exclusion chromatography)
B2: P. aeruginosa TssC1 (H1-T6SS sheath protein), produced in E. coli (natural protein)
chain: MAELSTENLAQGQTTTEQTSEFASLLLQEFKPKTERAREAVETAVRTLAEHALEQTSLISNDAIKSIESIIAALDAKLTAQVNLIMHHADFQQLESAWRGLHYLVNNTETDEQLKIRVLNISKPELHKTLKKFKGTTWDQSPIFKKLYEEEYGQFGGEPYGCLVGDYYFDQSPPDVELLGEMAKISAAMHAPFISAASPTVMGMGSWQELSNPRDLTKIFTTPEYAGWRSLRESEDSRYIGLTMPRFLARLPYGAKTDPVEEFAFEEETDGADSSKYAWANSAYAMAVNINRSFKLYGWCSRIRGVESGGEVQGLPAHTFPTDDGGVDMKCPTEIAISDRREAELAKNGFMPLLHKKNTDFAAFIGAQSLQKPAEYDDPDATANANLAARLPYLFATCRFAHYLKCIVRDKIGSFKEKDEMQRWLQDWILNYVDGDPAHSTETTKAQHPLAAAEVVVEEVEGNPGYYNSKFFLRPHYQLEGLTVSLRLVSKLPSAKEA
notes: TssC1 of the H1-T6SS cluster of Pseudomonas aeruginosa; 498 residues in total (461 traced; M1-A37 not traced); also called VipB/IglB homologue; source: E. coli B834(DE3), co-produced with TssB1 from pET28-B1C1, purified as TssB1C1 tubes (size exclusion chromatography)

Assays:
[1] = target: B2; experiment: cryo-EM structure; TssB1C1 sheaths (1 mg/ml) purified from E. coli, vitrified; helical reconstruction in RELION; contracted sheath with 13-fold symmetry, 3.3 Å; SEC buffer 50 mM Tris-HCl pH 9, 250 mM NaCl, 1 mM EDTA, 5 mM DTT; conditions: both partners purified
[2] = target: the molecule itself; experiment: as above

Binder | binding result [1] | binding result [2]
B1 | binds | –
B2 | – | binds
